The values that follow come from patent US20160159906A1 (Genentech, published 2016).

T1: human CD79b (human, UniProt P40259 29-229)
T1 sequence: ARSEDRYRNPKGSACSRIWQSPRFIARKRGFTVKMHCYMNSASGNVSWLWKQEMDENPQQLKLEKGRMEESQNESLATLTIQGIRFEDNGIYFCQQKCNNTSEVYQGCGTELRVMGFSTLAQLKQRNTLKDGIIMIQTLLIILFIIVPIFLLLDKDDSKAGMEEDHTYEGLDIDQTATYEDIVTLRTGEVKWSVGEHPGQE

T2: human CD79b fused with an Fc domain at the C-terminus (printed at paragraph 314 as Human CD79a fused with an Fc … (human, UniProt P40259 29-159))
T2 construct: also called CD79b immobilized at a low density; Fc-tagged ECD of human CD79b; not shown: Fc domain at the C-terminus
T2 sequence: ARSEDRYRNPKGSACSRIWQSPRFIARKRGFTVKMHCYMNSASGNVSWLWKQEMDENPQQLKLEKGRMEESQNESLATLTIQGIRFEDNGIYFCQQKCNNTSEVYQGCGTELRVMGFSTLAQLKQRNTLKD

B1: bispecific bisfab anti-CD79b/CD3 (CD79b.A7/UCHT1.v9) (bispecific antibody, V domains shown)
VH 1: QVQLQQPGVELVRPGASVKLSCKASGYTFTTYWMNWVRQRPGQGLDWIGMIDPSDSETHYNQMFKDKATLTVDKSSSTAYIQLNSLTSEDSAVYYCSRSLAFWGQGTLVTVSA
VL 1: not shown
VH 2: EVQLVESGGGLVQPGGSLRLSCAASGYSFTGYTMNWVRQAPGKDLEWVALINPYKGVSTYNQKFKDRFTISVDKSKNTAYLQMNSLRAEDTAVYYCARSGYYGDSDWYFDVWGQGTLVTVSS
VL 2: DIQMTQSPSSLSASVGDRVTITCRASQDIRNYLNWYQQKPGKAPKLLIYYTSRLESGVPSRFSGSGSGTDYTLTISSLQPEDFATYYCQQGNTLPWTFGQGTKLELK
notes: Bisfab format; constant parts and the link between the two Fabs are not described; also called CD79b.A7/UHT1.v9
B2: chCD79b.A7 (antibody, V domains shown)
VH: B1 VH 1
VL: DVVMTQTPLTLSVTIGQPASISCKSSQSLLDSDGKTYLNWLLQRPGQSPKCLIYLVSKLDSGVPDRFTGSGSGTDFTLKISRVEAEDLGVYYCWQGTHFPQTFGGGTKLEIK
notes: Chimeric form of CD79b.A7 by its prefix ch
B3: SN8.new/UCHT1.v9 bispecific K&H antibody (bispecific antibody, V domains shown)
VH 1: EVQLVESGGGLVQPGGSLRLSCAASGYTFSSYWIEWVRQAPGKGLEWVGEILPGGGDTNYNEIFKGRFTISADTSKNTAYLQMNSLRAEDTAVYYCTRRVPIRLDYWGQGTLVTVSS
VL 1: DIQMTQSPSSLSASVGDRVTITCKASQSVDYDGDSFLNWYQQKPGKAPKLLIYAARKLGRGVPSRFSGSGSGTDFTLTISSLQPEDFATYYCQQSNEDPLTFGQGTKVEIK
VH 2: B1 VH 2
VL 2: B1 VL 2
B4: CD79b.A7, dual arm, bivalent anti-CD79b antibody (antibody, V domains shown)
VH: B1 VH 1
VL: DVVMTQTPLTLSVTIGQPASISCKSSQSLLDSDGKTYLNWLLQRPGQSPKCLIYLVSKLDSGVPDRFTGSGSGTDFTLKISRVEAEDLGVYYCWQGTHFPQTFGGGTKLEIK
notes: Mouse hybridoma clone; also called CD79.A7; muCD79b.A7
B5: Peptide 1, 21-amino acid peptide ARSEDRYRNPKGSACSRIWQS that corresponds to the NH2 termini of huCD79b (peptide)
peptide: ARSEDRYRNPKGSACSRIWQS
B6: CD79b.A7.v14 (antibody, V domains shown)
VH: EVQLVQSGAEVKKPGASVKVSCKASGYTFTTYWMNWVRQAPGQGLEWIGMIDPSDSETHYNQMFKDRATLTVDTSTSTAYLELSSLRSEDTAVYYCSRSLAFWGQGTLVTVSS
VL: DIVMTQTPLSLPVTPGQPASISCKSSQSLLDSDGKTYLNWLLQKPGQSPQSLIYLVSKLDSGVPDRFSGSGSGTDFTLKISRVEAEDVGVYYCWQGTHFPQTFGQGTKVEIK
notes: VH1c + VL4; bivalent, dual arm IgG; also called huCD79b.A7.v14; CD79.A7.v14
B7: monovalent CD79.A7.v14 in the K&H TDB format CD79.A7.v14/40G5c (bispecific antibody, V domains shown)
VH 1: B6 VH
VL 1: B6 VL
VH 2: EVQLVQSGAEVKKPGASVKVSCKASGYTFTNYYIHWVRQAPGQGLEWIGWIYPGDGNTKYNEKFKGRATLTADTSTSTAYLELSSLRSEDTAVYYCARDSYSNYYFDYWGQGTLVTVSS
VL 2: DIVMTQSPDSLAVSLGERATINCKSSQSLLNSRTRKNYLAWYQQKPGQPPKLLIYWASTRESGVPDRFSGSGSGTDFTLTISSLQAEDVAVYYCTQSFILRTFGQGTKVEIK
notes: also called CD79b.A7.v14/40G5c K&H
B8: CD79b.A7.v18 (antibody, V domains shown)
VH: B6 VH with T74K
VL: B6 VL
notes: VH1d + VL4; assessed as IgG
B9: CD79b.A7.v19 (antibody, V domains shown)
VH: B6 VH with T74K
VL: B6 VL with I2V
notes: VH1d + VL5; assessed as IgG
B10: CD79b.A7.v20 (antibody, V domains shown)
VH: B6 VH with L70I
VL: B6 VL
notes: VH1e + VL4; assessed as IgG
B11: CD79b.A7.v15 (antibody, V domains shown)
VH: B6 VH
VL: B6 VL with I2V
notes: VH1c + VL5; assessed as IgG
B12: CD79b.A7.v21 (antibody, V domains shown)
VH: B6 VH with A68V
VL: B6 VL
notes: VH1f + VL4; assessed as IgG
B13: Peptide 2, 21-amino acid peptide AKSEDLYPNPKGSACSRIWQS that correspond to the NH2 termini of cynoCD79b (peptide)
peptide: AKSEDLYPNPKGSACSRIWQS

Positions count from the first letter of the chain named.

Assay [1] has as its target T1, human CD79b. The experiment in a line: cell-based or functional assay.
The target of assay [2] is T1, human CD79b. Description: FACS on BJAB cells (FIG. 3B); bispecific bisfab, monovalent for CD79b. The procedure:
(§1) BJAB cells were incubated with anti-CD79b antibody (bivalent, dual arm antibody) or anti-CD79b/CD3 TDB antibody as indicated for 30 minutes on ice. At the end of the incubation, cells were washed with ice cold FACS buffer (lx PBS, 2% BSA, 2mM EDTA), followed by incubation with PE-labeled mouse anti-human IgG antibody (BD bioscience #555787). Flow cytometry analysis was done on a BD LSR analyzer. Antibody binding was expressed as Mean Fluorescence Intensity (MFI) of PE fluorophore. A: The bivalent binding affinity of anti-CD79b clone 2F2 comparing to monovalent binding affinity of anti-CD79b clones 2F2, SN8v28, and SN8new (as K&H TDBs); B: bivalent binding affinity of anti-CD79b clones CD79b.F6 and CD79b.A7 comparing to monovalent binding of anti-CD79b clones CD79b.F6, CD79b.A7, and SN8v28 (as bisfab or K&H TDBs); C: bivalent binding affinity of anti-CD79b clone CD79b.A7.v14 comparing to monovalent binding of anti-CD79b clone CD79b.A7.v14 (as K&H TDBs).
(§2) The monovalent and bivalent anti-CD79b antibody binding affinity was also evaluated in order to better understand the contribution, if any, to B cell killing activity. Binding affinity of dual arm, bivalent anti-CD79b antibodies and bispecific anti-CD79b/ CD3 antibodies using BJAB cells were also analyzed. […]

The target of assay [3] is T1, human CD79b. Description: FACS on BJAB-luciferase cells, bivalent binding, PE anti-human IgG. As for the experimental part:
At the end of the incubation, cells were washed with ice cold FACS buffer (1× PBS, 2% BSA, 2 mM EDTA), followed by incubation with PE-labeled mouse anti-human IgG antibody (BD bioscience #555787). Flow cytometry analysis was done on a BD LSR analyzer. Bivalent binding was expressed as Mean Fluorescence Intensity (MFI) of PE fluorophore.

Assay [4] addresses T1, human CD79b. Description: FACS on BJAB cells, PE-labeled mouse anti-human IgG detection, MFI [panel A]. The procedure:
as §1, §2

For assay [5], the target named is T1, human CD79b. Description: FACS on BJAB cells (FIG. 3B); dual arm, bivalent antibody. As for the experimental part:
as §1, §2

Assay [6] deals with B4. Description: FACS on BJAB cells, peptide competition (data not shown).
The target of assay [7] is T1, human CD79b. Description: FACS on BJAB cells (FIG. 3C). As for the experimental part:
as §1
Binding affinity of the humanized CD79.A7.v14 of monovalent and bivalent was tested as described above.

In assay [8] the target is T2, human CD79b fused with an Fc domain at …. Description: Biacore T100 SPR, bivalent IgG over CD79b-Fc immobilized at low density; apparent affinity. The procedure:
The binding affinity of the antibodies in this section was determined by BIAcore™ T100. Briefly, BIAcore™ research grade CM5 chips were activated with 1-ethyl-3-(3-dimethylaminopropyl) carbodiimide (EDC) and N-hydroxysuccinimide (NHS) reagents according to the supplier's instructions. Human […] fused with an Fc domain at the C-terminus was coupled to the chips. To achieve more monovalent binding events, low density of ˜12 response units (RU) was immobilized in each flow cell. For measuring the apparent affinity of the antibodies, ˜370 RU of the antigen was immobilized. Unreacted coupling groups were blocked with 1M ethanolamine. For kinetics measurements, three-fold serial dilutions of antibody was injected in PBS-T buffer (0.05% surfactant P20 in PBS) at 25° C. with a flow rate of 30 μl/min. 10 mM glycine, pH 1.7 was used as regeneration buffer at 30 ul/min flow rate for 1 minute. Association rates (kₒₙ) and dissociation rates (koff) were calculated using a 1:1 Langmuir binding model (BIAcore™ T100 Evaluation Software version 2.0). The equilibrium dissociation constant (Kd) was calculated as the ratio koff/kₒₙ.
Thus additional humanized variants were made to evaluate the contribution of mouse framework vernier positions towards binding. Six additional light chains (VL1: CDRs graft+(Y36L), VL2: CDRs graft+(Y36L+L46C), VL3: CDRs graft+(I2V+Y36L+L46C), VL4: CDRs graft+(Y36L+L46S), VL5: CDRs graft+(I2V+Y36L+L46S), VL6: CDRs graft+(L46S)) and seven additional heavy chains (VH1a: CDRs graft+(A93S), VH1b: CDRs graft+(R71V+A93S), VH1c: CDRs graft+(V67A+I69L+R71V+A93S), VH1d:CDRs graft+(V67A+I69L+R71V+T73K+A93S), VH1e: CDRs graft+(V67A+R71V+A93S), VH1f: CDRs graft+(I69L+R71V+A93S), and VH1g: CDRs graft+(V67A+I69L)) were constructed and combined to generate the variants in Table 2. Based on the affinities of these variants, Y36L and L46C in the light chain appear to be key mouse vernier residues. […] In the heavy chain, V67A, I69L, R71V and A93S also contributed to CD79b binding; however R71V appeared to be the key mouse vernier residues based on this mutational analysis.
A general note: SPR reads the build-up and loss of mass on a sensor chip optically.

The target of assay [9] is B4. The experiment in a line: FACS on BJAB cells, peptide competition of CD79b.A7 binding (data not shown).

The term EC50 denotes the concentration giving half of the maximal effect. Lower therefore signals greater potency. Turning to B1, the “endogenous B cell killing EC50” value in [1] was found to be 0.012 µg/mL. Further, the EC50 in [2] turned out to be 1.4 µg/mL. The molecule B2 yielded a 50% effective concentration (EC50) in assay [3] of 0.124 µg/mL. The EC50 (read off the curve) is the midpoint of the concentration-response curve. B3: the “EC50 (read off the curve)” value in assay [4] was approximately 1 µg/mL. The molecule B4 registered a 50% effective concentration (EC50) in assay [5] of 0.31 µg/mL. In the case of B5, the binding result in [6] is “binds”. In the case of B6, the EC50 in [7] is 0.0468 µg/mL; in [3], 0.068 µg/mL. Besides, in [8], the Kd is 5 nM. B7 showed a 50% effective concentration (EC50) in assay [7] of 0.22 µg/mL.

For B8, the Kd in [8] turned out to be 4 nM. Still for that read-out and setting: the figure for B9 is 4 nM; for B10 it is 8 nM.

As for B11, in [8], the Kd amounted to 5 nM. Turning to B12, the Kd in assay [8] was 8 nM. In the case of B13, in [9], the binding result is on record as “no binding”.
